# Test results as given in US20220409694A1, “POLYPEPTIDE, AND PREPARATION METHOD THEREFOR AND USE THEREOF” (SHANXI JINBO BIO-PHARMACEUTICAL CO., LTD., priority 2020, published 2022).
# Columns and labels:
# Experiment in all cases: cell-based or functional assay
# [1] = biological target: WIV1-CoV S protein (pcDNA3.1-WIV1-CoV-S, on pseudovirus) (WIV1-CoV (SARS-like virus from bats))
# [2] = biological target: Rs3367-CoV S protein (pcDNA3.1-Rs3367-CoV-S, on pseudovirus) (Rs3367-CoV (SARS-like virus from bats))
# [3] = biological target: SARS-CoV S protein (pcDNA3.1-SARS-CoV-S, on pseudovirus) (SARS-CoV), P59594
binder,measurement,setting,value
SLDQINVTFLDLEYEMKKLEEAIKKLEESYIDLKEL (modifications not checked) [EK1],"Inhibitory Activity, IC50 (pseudovirus infection of HuH7, luciferase)",[1],2.94 µM
same,"Inhibitory Activity, IC50 (pseudovirus infection of HuH7, luciferase)",[2],4 µM
same,"Inhibitory Activity, IC50 (pseudovirus infection of HuH7, luciferase)",[3],1.89 µM
